B1: T. brucei RNA Editing Ligase 1 (TbREL1), full length wild type [modified: [35S]-methionine labelled; [35S]-methionine labelled] [Trypanosoma brucei] / KREPA2 [modified: [35S]-methionine labelled; [35S]-methionine labelled] [Trypanosoma … (parent complex)
chain 1: YMPLPNDQSDFSPYIEIDLPSESRIQSLHKSGLAAQEWVACEKVHGTNFGIYLINQGDHEVVRFAKRSGIMDPNENFFGYHILIDEFTAQIRILNDLLKQKYGLSRVGRLVLNGELFGAKYKHPLVPKSEKWCTLPNGKKFPIAGVQIQREPFPQYSPELHFFAFDIKYSVSGAEEDFVLLGYDEFVEFSSKVPNLLYARALVRGTLDECLAFDVENFMTPLPALLGLGNYPLEGNLAEGVVIRHVRRGDPAVEKHNVSTIIKLRCSSFMELKHPGKQKELKETFIDTVRSGALRRVRGNVTVISDSMLPQVEAAANDLLLNNVSDGRLSNVLSKIGREPLLSGEVSQVDVVLMLAKDALKDFLKEVDSLVLNTTLAFRKLLITNVYFESKRLVEQKWKELMQEEAAAQSEAIPPLSPAAPTKGE
chain 2: MYRRFFRSAAVKHLGTTSAQCLMRATKYPCGAMCRNASSCHPQTLGYQQRFQSTTDKKFHCSVCKKPFRLEMAAKLHLQQAHGGDGSVEAGPGPGVEASSVNVVSTPVPSPISPVERTFVDEEERRPRRMRPTPKPLHQPDRDIPAAAMEEMLGVWDKIGLNRLEGNFVHSTMVMKVFAAPPDVSEIPLYEHVAPEGENPFDSLDHMTTGTVDATYVGHDAFAEVDLVDPFVAAPDQTLNPFRAGKVRNPFTRISPTQREVVKPLQPPQPKEEPLKAPVTPFGQLPMFGQTREPSASFAAAAVSVQAAANPNEVSSPFAAAVSSSPFVGQVASPFAPAQDVAGSPFEASPCAASSPFVTAGGQETSPFAAPSTPASFGQGSLFPPMGTGAPGFTAITETEQRQQELEHGCPTCGKKFSTFEGAAMHSKSKHGIVLESKKVKDRLNRKGVPDLPAYVPSPVDLSSTSPFGTRSAIGASWAETELIPHAQCVSNITIVGRVLDVSQASENVSHVTVFVEGERSGEEETLTLCCFGEVSQKIRGTLKRNATIFASGTLRLHPVYEASNNKYYVSPVVHVSMPTGTLAVIT

Variants of: B1
Assay: co-precipitation (pull-down) with His-tag isolation beads, [35S]-methionine labeled proteins; parent: 100; read off a plot

Row | Variant | percent of parent
1 | chain 1 YMPLPNDQSDFSPYIEIDLPSESRIQSLHKSGLAAQEWVACEKVHGTNFGIYLINQGDHEVVRFAKRSGIMDPNENFFGYHILIDEFTAQIRILNDLLKQKYGLSRVGRLVLNGELFGAKYKHPLVPKSEKWCTLPNGKKFPIAGVQIQREPFPQYSPELAFFAFDIKYSVSGAEEDFVLLGYDEFVEFSSKVPNLLYARALVRGTLDECLAFDVENFMTPLPALLGLGNYPLEGNLAEGVVIRHVRRGDPAVEKHNVSTIIKLRCSSFMELKHPGKQKELKETFIDTVRSGALRRVRGNVTVISDSMLPQVEAAANDLLLNNVSDGRLSNVLSKIGREPLLSGEVSQVDVVLMLAKDALKDFLKEVDSLVLNTTLAFRKLLITNVYFESKRLVEQKWKELMQEEAAAQSEAIPPLSPAAPTKGE [chain 1 H161A] | ~94 % of WT
2 | chain 1 YMPLPNDQSDFSPYIEIDLPSESRIQSLHKSGLAAQEWVACEKVHGTNFGIYLINQGDHEVVRFAKRSGIMDPNENFFGYHILIDEFTAQIRILNDLLKQKYGLSRVGRLVLNGELFGAKYKHPLVPKSEKWCTLPNGKKFPIAGVQIQREPFPQYSPELHFFAFDIKYSVSGAEEDFVLLGYDEFVEFSSKVPNLLYARALVRGTLDECLAFDVENFMTPLPALLGLGNYPLEGNLAEGVVIRHVRRGDPAVEKHNVSTIIKLRCSSFMELKHPGKQKELKETFIDTVRSGALRRVRGNVTVISDSMLPQVEAAANDLLLNNVSDGRLSNVLSKIGREPLLSGEVSQVDVVLMLAKDALADFLKEVDSLVLNTTLAFRKLLITNVYFESKRLVEQKWKELMQEEAAAQSEAIPPLSPAAPTKGE [chain 1 K361A] | ~67 % of WT
3 | chain 1 YMPLPNDQSDFSPYIEIDLPSESRIQSLHKSGLAAQEWVACEKVHGTNFGIYLINQGDHEVVRFAKRSGIMDPNENFFGYHILIDEFTAQIRILNDLLKQKYGLSRVGRLVLNGELFGAKYKHPLVPKSEKWCTLPNGKKFPIAGVQIQREPFPQYSPELHFFAFDIKYAVSGAEEDFVLLGYDEFVEFSSKVPNLLYARALVRGTLDECLAFDVENFMTPLPALLGLGNYPLEGNLAEGVVIRHVRRGDPAVEKHNVSTIIKLRCSSFMELKHPGKQKELKETFIDTVRSGALRRVRGNVTVISDSMLPQVEAAANDLLLNNVSDGRLSNVLSKIGREPLLSGEVSQVDVVLMLAKDALKDFLKEVDSLVLNTTLAFRKLLITNVYFESKRLVEQKWKELMQEEAAAQSEAIPPLSPAAPTKGE [chain 1 S170A] | ~66 % of WT
4 | chain 1 YMPLPNDQSDFSPYIEIDLPSESRIQSLHKSGLAAQEWVACEKVHGTNFGIYLINQGDHEVVRFAKRSGIMDPNENFFGYHILIDEFTAQIRILNDLLKQKYGLSRVGRLVLNGELFGAKYKHPLVPKSEKWCTLPNGKKFPIAGVQIQREPFPQYSPELHFFAFDIKYSVSGAEEDFVLLGYDEFVEFSSKVPNLLYARALVRGTLDECLAFDVENFMTPLPALLGLGNYPLEGNLAEGVVIRHVRRGDPAVEKHNVSTIIKLRCSSFMELKHPGKQKELKETFIDTVRSGALRRVRGNVTVISDSMLPQVEAAANDLLLNNVSDGRLSNVLSKIGREPLLSGEVSQVDVVLMLAKDALKDFLKEVDSLVLNTTLAFRKLLITNVYFESKRLVEQKWKELMQEEAAAQSAAIPPLSPAAPTKGE [chain 1 E411A] | ~94 % of WT

— PMC4366279 (PLoS ONE, 2015)
